# Measured values as given in patent US8299032B2, “Self-assembling peptide and gel produced from the same” (Menicon Co., Ltd., priority 2005, dated 2012).
# Legend:
# [1] = Dynamic viscoelasticity of peptide aqueous solution (storage modulus G′, loss modulus G″); type: physicochemical; conditions: 0.5 wt %, acidic aqueous solution (pH 3.5)
# Source text: In addition, the term “gel” as used herein refers to a viscoelastic substance having both viscous property and elastic property. Concretely, the gel refers to a substance satisfying the formula G′>G″, in a case where the gel is subjected to dynamic viscoelasticity measurement to determine a storage elastic modulus G′ and a loss elastic modulus G″.
# The dynamic viscoelasticity can be determined with a dynamic viscoelasticity measurement apparatus as described in Examples set forth below. Concretely, the dynamic viscoelasticity can be determined by placing a sample on an iron plate, compressing the sample with an iron cone, and monitoring a stress applied to a motor rotating the iron cone when the cone is rotated.
# The storage elastic modulus G′ and the loss elastic modulus G″ of a 0.5% by weight peptide (Peptide Nos. 1 to 10 mentioned above)-containing aqueous solution were determined with an instrument under the trade name of AR1000 (manufactured by TA Instruments Japan). […] Next, the 0.5% by weight peptide-containing aqueous solution was compressed, and a stress applied to a motor was monitored when the iron cone was rotated, while varying the frequency of the cone within the range of 0.1 to 10 rad/sec.
# [2] = Gel formation, test tube placed up-side-down; type: physicochemical; parameters: key to Gel Formation: Excellent: those in which the contents did not drop off were evaluated as the gel formation being “excellent”; Poor: those in which the contents dropped off were evaluated as being “poor.”; conditions: 37° C. for 24 hours
# Protocol: Peptide Nos. 1, 2, 4, 5, 6, 10 and 11 synthesized in Production Examples 1 and 2 were dissolved in each of aqueous solutions listed in Table 11. A 1.5 mL test tube was charged with 1 mL of the resulting peptide-containing aqueous solution. Next, the test tube was allowed to stand at 37° C. for 24 hours.
sequence,measurement,setting,value
"RADARADARADARADA [Peptide No. 10, reference compound]",gel formation by dynamic viscoelasticity,[1],formed the gel in an acidic aqueous solution
same,Gel Formation,"[2]; PBS pH 7.4, peptide 0.5% by weight",Poor
same,gel formation in neutral aqueous solution (summary of Table 11),"[2]; neutral aqueous solutions, 0.5% by weight",did not form into gel in a neutral aqueous solution
